Values of other authors, collected in PMC5399307.

Target: ezrin FERM (Homo sapiens) (UniProt P15311)
Sequence of UniProt P15311 (P15311 1-299): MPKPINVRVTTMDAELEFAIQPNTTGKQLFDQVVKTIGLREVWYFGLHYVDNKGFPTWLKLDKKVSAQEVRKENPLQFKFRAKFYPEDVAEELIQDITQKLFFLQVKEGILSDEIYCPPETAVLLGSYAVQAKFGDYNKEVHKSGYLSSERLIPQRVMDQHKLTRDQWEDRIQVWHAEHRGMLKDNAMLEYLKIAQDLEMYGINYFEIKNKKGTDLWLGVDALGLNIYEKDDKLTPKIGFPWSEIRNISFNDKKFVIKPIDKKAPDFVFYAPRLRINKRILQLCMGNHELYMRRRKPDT

- Kd: 51 nM
Substance: NHERF1 (from UniProt O14745)
